Results reported in publication PMC6643034 (2019).

T1: CXCL7 (human)
T1 chain: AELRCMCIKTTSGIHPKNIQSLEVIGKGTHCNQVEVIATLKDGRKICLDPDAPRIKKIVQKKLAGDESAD

B1: P1142 (natural protein)
chain: DGGKPQILQRTDHSTDSDWDPQMCPETCNPSKNISCSSECLCVTLGGGDETGTCFNMSGVDWLGHAQASDGHNDGGGASAWSHPQFEKLEHHHHHHHH
modifications: glycosylated (periodic acid–Schiff staining)
B2: P1126 (natural protein)
chain: DGGKPQILQRTDKSTDSEWDPQTCPETCIPSKNITCSDGCVCVKLGEEEEGTCFNMTGVDWLGSPSDD
modifications: also: glycosylated
B3: P1172_IXORI (natural protein)
chain: FLLKSQLCYCLFGIELIGAGIHALHEDEIFTVDYCGTNCTKQSNGSWTTCPGNCSCYHEDGKTDGFCLSTEYTDFTQFPNLTSEEMDAATPRPE
B4: P1100_IXORI (natural protein)
chain: GSKGSSASQSSDNSVVAKFCDTNCTINEGGKWTECKGGCFCVHVGNETVGRCMKLDGDYDYPSPKPEE
B5: P942 (natural protein)
chain: DGGNQLSGPQSSANSNEAVFCDTNCTQGTDEAWSGCRGDCFCVYVGNSTEGRCMMLSGDFDYSTPGAED
modifications: also: glycosylated
B6: P1078_IXORI (natural protein)
chain: GSKGSSAQQSSHDSIKAEFCETNCTMKTGGKWTQCHGGCFCVHVGNETVGRCIKLDGDYDYPSSKHEE
B7: P1080_IXORI (natural protein)
chain: SAGSKGSSAPQSSGDSVVAEFCDTNCTMKKDGKWTECNGDCFCVHVGNETVGRCMRLDGDYDYTSSKTTRRNKKTRNGLCRLDRNRTTVDYPERNTREP
B8: P675 (natural protein)
chain: GSNQLSGPQSSANSNDAVFCDTNCTQGTDGAWSGCRGDCFCVHVGNSTEGRCIELIGDFDYSTPGAED
modifications: also: glycosylated
B9: P1090_IXORI (natural protein)
chain: GSKELSGPESSENSIEAAFCDTNCTEGTDGVWSGCSAGCFCVHVGNSTVGRCMTFNGVD
B10: P1104 (natural protein)
chain: ESKEASASQGPGKSFKVEFCETNCTENNGVWSGCTGDCICVSVGDSKEGRCMDLGDKVIDTPVAQG
modifications: also: glycosylated
B11: P1124_IXORI (natural protein)
chain: DSKGTSDSQDSTKSIKVDFCETNCTKTDGGWTGCTGDCICVSVGDSIEGRCMDFG
B12: P1170_IXORI (natural protein)
chain: LGDEDQLFSVEYCGTNCTQQDDGKWTPCSGKNGKCKCYHEDGKRYGLCLYTEYTDFSQYPNPEGSEIENTRPRP
B13: Evasin 3 (EVA3) (natural protein)
chain: DGGLVSTIESRTSGDGADNFDVVSCNKNCTSGQNECPEGCFCGLLGQNKKGHCYKIIGNLSGEPPVVRR
modifications: also: glycosylated
B14: P1086_IXORI (natural protein)
chain: GSKGQRASQVSETSITAEFCDTSCTQGTDKTWSGCSGDCFCVHVGNDTEGRCMRWDGDYPSAEEEE
B15: CXCL4 (ligand)
chain: EAEEDGDLQCLCVKTTSQVRPRHITSLEVIKAGPHCPTAQLIATLKNGRKICLDLQAPLYKKIIKKLLES
B16: P1134 (natural protein)
chain: NEEVFTVEYCGMNCTQKSDGTWTECSGKNKDCRCYHESDAREGLCLSTEYTDFSQFETPSNSDLEAATPRPRKTLYPVRNPHGPKTRGLGYDKRILRDRVKFLI
modifications: glycosylated (periodic acid–Schiff staining)
B17: CXCL11 (ligand)
chain: FPMFKRGRCLCIGPGVKAVKVADIEKASIMYPSNNCDKIEVIITLKENKGQRCLNPKSKQARLIIKKVERKNF
B18: CXCL13 (ligand)
chain: VLEVYYTSLRCRCVQESSVFIPRRFIDRIQILPRGNGCPRKEIIVWKKNKSIVCVDPQAEWIQRMMEVLRKRSSSTLPVPVFKRKIP

Tests used:
Experiment in all cases: BLI
[1] = biological target: CXCL6 (human)
[2] = biological target: CXCL3 (human, UniProt P19876 35-107)
[3] = biological target: CXCL2 (human, UniProt P19875 35-107)
[4] = biological target: T1, CXCL7
[5] = biological target: B15
[6] = biological target: CXC-motif chemokine ligand 10 (CXCL10) (human, UniProt P02778 22-98)
[7] = biological target: CXCL1 (human, UniProt P09341 35-107)
[8] = biological target: B17
[9] = biological target: CXCL5 (human)
[10] = biological target: CXCL8 (human)
Chain of CXCL8 (human) (chain, as listed by the source): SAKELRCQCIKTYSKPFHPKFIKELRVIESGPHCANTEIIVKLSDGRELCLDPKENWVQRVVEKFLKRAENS

[11] = biological target: B18
[12] = biological target: CXCL12 (human, UniProt P48061 22-93)
[13] = biological target: P1074_IXORI (Ixodes ricinus, UniProt A0A0K8RDH6 29-96)

Binder | Kd [1] | Kd [2] | Kd [3] | Kd [4] | Kd [5] | Kd [6] | Kd [7] | Kd [8] | Kd [9] | Kd [10] | Kd [11] | Kd [12] | Kd [13]
B1 | 6.27 nM | 5.65 nM | 2.14 nM | 1.83 nM | 381 nM | 7.46 nM | 4.61 nM | 322 nM | 9.81 nM | – | – | – | –
B2 | 9.12 nM | 13.3 nM | 5.11 nM | 6.05 nM | 393 nM | 7.9 nM | 10.5 nM | 394 nM | 12.1 nM | – | – | – | –
B3 | – | – | 26 nM | – | – | – | 5.59 nM | – | 59.3 nM | 26.7 nM | – | – | –
B4 | 15.2 nM | 55.9 nM | – | – | – | 380 nM | 49.9 nM | 102 nM | 50.8 nM | – | – | – | –
B5 | 7.28 nM | 5.04 nM | 6.48 nM | – | 148 nM | 133 nM | 3.09 nM | 12.4 nM | 21.1 nM | – | 39.5 nM | – | –
B6 | – | 43.8 nM | 68.3 nM | – | – | – | 6.35 nM | 16.7 nM | 39.2 nM | – | 255 nM | – | –
B7 | 61 nM | 124 nM | – | – | 2310 nM | 1260 nM | – | – | 55.1 nM | – | 1110 nM | – | –
B8 | – | 35.7 nM | 24.8 nM | – | 422 nM | 3120 nM | 9.99 nM | 7.73 nM | 34.2 nM | – | 582 nM | – | –
B9 | 2.82 nM | 7.67 nM | 3.03 nM | – | – | 23.9 nM | 3.55 nM | 3.85 nM | 43 nM | – | 12.5 nM | – | –
B10 | 34.3 nM | 43.7 nM | 82.3 nM | – | – | – | 14.4 nM | – | 24.5 nM | – | 220 nM | 67.8 nM | –
B11 | – | 8.84 nM | 13.8 nM | – | – | – | 7.61 nM | – | 26.4 nM | – | 256 nM | 212 nM | –
B12 | – | – | – | – | – | – | 59.6 nM | – | – | 12.3 nM | – | – | –
B13 | 1.03 nM | 7.37 nM | 7.49 nM | – | – | – | 5.73 nM | – | 24.9 nM | 2.57 nM | – | – | –
B14 | – | 15.2 nM | – | – | – | 18.7 nM | – | – | – | – | – | – | –
B15 | – | – | – | – | – | – | – | – | – | – | – | – | 157 nM
B16 | – | – | – | – | – | – | 27.3 nM | – | – | – | – | – | –
B17 | – | – | – | – | – | – | – | – | – | – | – | – | 12 nM
B18 | – | – | – | – | – | – | – | – | – | – | – | – | 95.8 nM
